How the values were obtained:
XIAP and Bcl-2 = biological target: T1, XIAP and Bcl-2 (Homo sapiens, UniProt P10415+P98170); test: Pull-down of myc-XIAP in COS-7 cells co-transfected with ARTS, flag-Bcl-2 and myc-XIAP; format: binding
T1 construct: expressed in transfected cells; host or cells: COS-7
Description: (§1) COS-7 cells were co-transfected with different constructs as detailed herein. The cells were lysed in RIPA buffer (150 mM NaCl, 50 mM Tris-HCl (pH 8), 1% NP-40, 0.5% deoxycholate acid containing protease inhibitors (mini Complete, Roche)). The samples were left rotating overnight at 4° C. with the anti-Myc-beads (Santa Cruz). Samples were centrifuged at 4000 rpm, 4° C. for 5 min and washed four times in PBS. Proteins were eluted from beads following 5 min of boiling in sample buffer. Proteins were separate on 12.5% SDS-PAGE gel, followed by Western blot analysis.
Further understanding and evaluation of the relative contribution of ARTS to the formation of a complex with Bcl-2 and XIAP was obtained by over-expressing ARTS, Bcl-2, and XIAP alone or all together in COS-7 cells, which contain relatively small amounts of endogenous ARTS.
FIGS. 5A and 5B show results of COS-7 cells (pull down and lysates) transiently co-transfected with combinations of ARTS, flag-Bcl-2, and myc-XIAP constructs. Pull-down of XIAP was performed using anti-myc beads, and the precipitate was subjected to western blot analyses. […] This weak binding was attributed to the presence of low endogenous levels of ARTS in these COS-7 cells resulting in almost no formation of the complex.

Bcl-XL = Bcl-XL (Homo sapiens, UniProt Q07817); test: IP with anti ARTS antibody in HeLa wt cells, Bcl-xL; format: binding; design: endogenous in cells; host or cells: HeLa wt cells
Chain of Bcl-XL (Q07817 whole entry): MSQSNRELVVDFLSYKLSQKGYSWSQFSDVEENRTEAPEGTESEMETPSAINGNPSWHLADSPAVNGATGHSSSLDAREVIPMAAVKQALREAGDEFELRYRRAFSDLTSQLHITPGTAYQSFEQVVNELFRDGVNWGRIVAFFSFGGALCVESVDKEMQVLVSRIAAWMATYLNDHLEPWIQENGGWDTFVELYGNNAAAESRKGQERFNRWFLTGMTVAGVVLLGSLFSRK
Description: (§2) Co immunoprecipitation was performed as previously described (Gottfried et al., 2004). Briefly, 10 μg of anti-ARTS antibody or 2 μg of anti-Bcl-2 or anti-XIAP antibody were added to the protein lysate and the samples were left rotating overnight at 4° C. On the following day, agarose beads conjugated to protein A/G (Santa Cruz) were added for 4 h. Samples were centrifuged at 4000 rpm, 4° C. for 5 min and washed three times with PBS. Proteins were eluted from beads following 5 min of boiling in sample buffer and separated on 12.5% SDS-PAGE gel, followed by Western blot analysis.
(§3) Further, HeLa wt cells were treated with ABT-263 25 μM for 24 h. 750 μg of total proteins were subjected to Immunoprecipitation (IP) assay using monoclonal mouse anti ARTS Antibody (Ab). Western Blot analysis was performed using Bcl-2, Bcl-xL, ARTS and Actin antibodies. […] This binding is still seen after 24 hours of treatment with ABT-263. The decrease in binding may be the result of lower levels of Bcl-2 and Bcl-xL known to be strongly degraded after 24 hours of apoptosis.

Bcl-2 [1] = test: Functional-structural pull-down assay with anti Bcl2 antibody in transfected HeLa cells; format: binding, human; conditions: pull-down with Bcl-2 antibodies
Description: HeLa cells were transiently transfected with Full length ARTS plasmid and 128 amino acids N′ terminus deletion of ARTS plasmid, for 24 hrs. The cells were extracted using RIPA-SDS lysis buffer. Immunoprecipitation was done by incubation of lysates overnight with anti Bcl2 antibody (BD), followed by precipitation done with protein A/G beads (Santa Cruz). Western blot analysis was performed using monoclonal anti ARTS antibody directed against its unique C terminus (Sigma).
In order to identify the Bcl-2 binding domain in ARTS, the inventors examined whether deletion of different fragments of ARTS, namely, the N-terminal 128 amino-acid residues may have an effect. Therefore, pull-down experiments were performed in HeLa cells transfected with either the full length ARTS or a deletion mutant thereof.

Bcl-2 [2] = test: Over-expression of ARTS in COS-7 cells, Bcl-2 levels by Western blot and densitometry; format: cell-based; conditions: COS-7 cells, transient transfection
Excerpt: For transient transfections jetPEI™ (Polyplus Transfection) and Transfectol (GeneChoice) reagents were used according to the manufacturers' instructions.
To determine whether ARTS promotes apoptosis by regulating the levels of Bcl-2, the inventors first over-expressed ARTS in COS-7 cells. More specifically, COS-7 cell were transiently transfected with ARTS, Bcl-2 or empty vector or co-transfected with both constructs.

XIAP [3] = biological target: T2, XIAP (Homo sapiens, UniProt P98170); conditions: in vitro and in vivo; cited from earlier work
T2 sequence (P98170 whole entry): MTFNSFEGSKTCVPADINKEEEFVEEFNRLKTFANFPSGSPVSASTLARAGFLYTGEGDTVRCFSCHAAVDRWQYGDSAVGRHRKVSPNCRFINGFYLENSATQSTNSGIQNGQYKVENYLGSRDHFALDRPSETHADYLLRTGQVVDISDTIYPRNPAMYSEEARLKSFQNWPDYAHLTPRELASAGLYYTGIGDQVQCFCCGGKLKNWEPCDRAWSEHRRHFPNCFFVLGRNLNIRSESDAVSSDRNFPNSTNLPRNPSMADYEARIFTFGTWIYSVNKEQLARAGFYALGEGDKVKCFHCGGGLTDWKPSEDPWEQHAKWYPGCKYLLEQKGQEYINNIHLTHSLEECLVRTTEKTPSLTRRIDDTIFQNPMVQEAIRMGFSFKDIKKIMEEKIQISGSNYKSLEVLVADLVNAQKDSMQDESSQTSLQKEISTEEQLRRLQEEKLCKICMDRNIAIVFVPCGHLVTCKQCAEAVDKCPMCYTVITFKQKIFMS

Bcl-2 [4] = test: IP with anti ARTS antibody in HeLa wt cells, Bcl-2; format: binding, human
Description: as §2, §3

Bcl-2 and XIAP = test: Immunoprecipitation with anti-ARTS monoclonal antibody in HeLa, BT-549 and COS-7 cells; format: binding; conditions: BT-549 and 6-Myc-ARTS transfected COS-7 cells
Description: as §2

XIAP [5] = biological target: T2, XIAP; test: Bimolecular Fluorescence Complementation (BiFC) with flow cytometry, ARTS and XIAP; format: binding; design: expressed in transfected cells; host or cells: HeLa; conditions: living cells, 30 minutes after apoptotic induction, data not shown
Excerpt: (§4) The Bimolecular Fluorescence Complementation (BiFC) assay, provides a simple and direct way to visualize protein-protein interactions in real-time and in living cells. The method is based on formation of a fluorescent complex through the association of two fragments of a fluorescent protein, brought together by an interaction between proteins fused to the fragments. This method is especially attractive because the Green fluorescent protein (GFP) or Yellow fluorescent protein (YFP) chromophore forms spontaneously on protein folding in virtually every cell type tested (Kerppola, 2006).
(§5) Direct binding between [ARTS and Bcl-2] and [XIAP and Bcl-2] was examined using the BiFC system. […]
(§6) Transfection was performed using 200 ng of each plasmid together with 50 ng of pdsRED plasmid which served as control for transfection efficiency. […] Flow cytometry analyses of cell suspensions were performed using a fluorescence-activated cell sorter (FACSCantoII; BD Biosciences) equipped with an argon laser emitting at 488 nm. […] Results were analyzed using […] software (BD Biosciences). A ratio between YFP fluorescence and Red fluorescence was calculated for each time point.
(§7) To further investigate the binding relationships within this complex, the split-Venus, Bimolecular Fluorescence Complementation (BiFC) system was used. […]

Bcl-2 [6] = test: Bimolecular Fluorescence Complementation (BiFC) with flow cytometry, ARTS and Bcl-2; format: binding, human; conditions: living cells, 30 minutes after apoptotic induction, data not shown
Excerpt: as §4, §5, §6, §7

Bcl-2 [7] = test: Myc beads pull-down of ARTS and Bcl-2 in co-transfected COS-7 cells; format: binding; conditions: COS-7 cells co-transfected with Bcl-2 and ARTS
Description: as §1
The mechanism by which ARTS regulates Bcl-2 levels was further tested using a pull-down assay in COS-7 cells which were co-transfected with Bcl-2 and ARTS expression vectors. Pull-down assays were performed using agarose anti-myc beads followed by Western blot analysis using mouse anti-ARTS and anti-Bcl-2 antibodies.

T1 sequence (P98170 whole entry): as above
T1 sequence (P10415 whole entry): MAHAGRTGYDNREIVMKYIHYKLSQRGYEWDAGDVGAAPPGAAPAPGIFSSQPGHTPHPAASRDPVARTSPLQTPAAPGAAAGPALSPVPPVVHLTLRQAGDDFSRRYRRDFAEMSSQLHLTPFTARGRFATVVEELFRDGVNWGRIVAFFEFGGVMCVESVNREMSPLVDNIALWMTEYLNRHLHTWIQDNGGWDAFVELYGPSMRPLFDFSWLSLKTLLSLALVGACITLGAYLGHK

B1: ARTS: septin-like mitochondrial protein; human ARTS of 274 amino acid residues, GenBank Accession No. AF176379 (protein, listed as Homo sapiens)
chain: MIKRFLEDTTDDGELSKFVKDFSGNASCHPPEAKTWASRPQVPEPRPQAPDLYDDDLEFRPPSRPQSSDNQQYFCAPAPLSPSARPRSPWGKLDPYDSSEDDKEYVGFATLPNQVHRKSVKKGFDFTLMVAGESGLGKSTLVNSLFLTDLYRDRKLLGAEERIMQTVEITKHAVDIEEKGVRLRLTIVDTPGFGDAVNNTECWKPVAEYIDQQFEQYFRDESGLNRKNIQDNRVHCCLYFISPFGHGYGPSLRLLAPPGAVKGTGQEHQGQGCH
ability of XIAP to bind to Bcl-2 on over-expression of ARTS (XIAP and Bcl-2): significantly increased
binding to Bcl-xL in living cells (Bcl-XL): binds
binding to Bcl-2 (Bcl-2 [1]): binds to Bcl-2
Bcl-2 levels on over expression (Bcl-2 [2]): reduction in Bcl-2 levels
binding to XIAP (XIAP [3]): binds directly to XIAP
binding to Bcl-2 in living cells (Bcl-2 [4]): binds
complex of ARTS, Bcl-2 and XIAP (Bcl-2 and XIAP): form a complex
binding to XIAP (BiFC fluorescence) (XIAP [5]): Strong binding
binding to Bcl-2 (BiFC fluorescence) (Bcl-2 [6]): Strong binding
complex with Bcl-2 (Bcl-2 [7]): forms a complex with Bcl-2

Reference: patent publication US11230579B2, “Method of treating BCL-2 over-expressing disorders using arts containing a BH3-like domain” (CARMEL-HAIFA UNIVERSITY ECONOMIC CORPORATION LTD., priority 2012, dated 2022)
